The record followed here is patent US20110059889A1 (SYNTONIX PHARMACEUTICALS, published 2011).

The labels stand for the following.
B1: Peptide No. 48 (peptide)
peptide: QRF[Pen]TGHF[dP]GLYPCNGP-NH2
modifications: disulfide 4-14; N-terminus assumed
SMILES: CC(C)C[C@@H]1NC(=O)CNC(=O)[C@H]2CCCN2C(=O)[C@H](Cc2ccccc2)NC(=O)[C@H](Cc2c[nH]cn2)NC(=O)CNC(=O)[C@H]([C@@H](C)O)NC(=O)[C@@H](NC(=O)[C@H](Cc2ccccc2)NC(=O)[C@H](CCCNC(=N)N)NC(=O)[C@@H](N)CCC(N)=O)C(C)(C)SSC[C@@H](C(=O)N[C@@H](CC(N)=O)C(=O)NCC(=O)N2CCC[C@H]2C(N)=O)NC(=O)[C@@H]2CCCN2C(=O)[C@H](Cc2ccc(O)cc2)NC1=O
B2: Peptide No. 52 (peptide)
peptide: QRF[Pen]TGHF[dF]GLYPCNGP-NH2
modifications: disulfide 4-14; N-terminus assumed
SMILES: CC(C)C[C@@H]1NC(=O)CNC(=O)[C@@H](Cc2ccccc2)NC(=O)[C@H](Cc2ccccc2)NC(=O)[C@H](Cc2c[nH]cn2)NC(=O)CNC(=O)[C@H]([C@@H](C)O)NC(=O)[C@@H](NC(=O)[C@H](Cc2ccccc2)NC(=O)[C@H](CCCNC(=N)N)NC(=O)[C@@H](N)CCC(N)=O)C(C)(C)SSC[C@@H](C(=O)N[C@@H](CC(N)=O)C(=O)NCC(=O)N2CCC[C@H]2C(N)=O)NC(=O)[C@@H]2CCCN2C(=O)[C@H](Cc2ccc(O)cc2)NC1=O
B3: Peptide No. 152 (peptide)
peptide: QRF[Pen]TGHF[dP][dP]LYPCNGP-NH2
modifications: disulfide 4-14; N-terminus assumed
SMILES: CC(C)C[C@@H]1NC(=O)[C@H]2CCCN2C(=O)[C@H]2CCCN2C(=O)[C@H](Cc2ccccc2)NC(=O)[C@H](Cc2c[nH]cn2)NC(=O)CNC(=O)[C@H]([C@@H](C)O)NC(=O)[C@@H](NC(=O)[C@H](Cc2ccccc2)NC(=O)[C@H](CCCNC(=N)N)NC(=O)[C@@H](N)CCC(N)=O)C(C)(C)SSC[C@@H](C(=O)N[C@@H](CC(N)=O)C(=O)NCC(=O)N2CCC[C@H]2C(N)=O)NC(=O)[C@@H]2CCCN2C(=O)[C@H](Cc2ccc(O)cc2)NC1=O
B4: Peptide No. 153 (peptide)
peptide: QRF[Pen]TGHF[dF]G[NMeL]YPCNGP-NH2
modifications: disulfide 4-14; N-terminus assumed
SMILES: CC(C)C[C@H]1C(=O)N[C@@H](Cc2ccc(O)cc2)C(=O)N2CCC[C@H]2C(=O)N[C@H](C(=O)N[C@@H](CC(N)=O)C(=O)NCC(=O)N2CCC[C@H]2C(N)=O)CSSC(C)(C)[C@H](NC(=O)[C@H](Cc2ccccc2)NC(=O)[C@H](CCCNC(=N)N)NC(=O)[C@@H](N)CCC(N)=O)C(=O)N[C@@H]([C@@H](C)O)C(=O)NCC(=O)N[C@@H](Cc2c[nH]cn2)C(=O)N[C@@H](Cc2ccccc2)C(=O)N[C@H](Cc2ccccc2)C(=O)NCC(=O)N1C
B5: Peptide No. 150 (peptide)
peptide: QRF[Pen]TGHF[dF][dP]LYPCNGP-NH2
modifications: disulfide 4-14; N-terminus assumed
SMILES: CC(C)C[C@@H]1NC(=O)[C@H]2CCCN2C(=O)[C@@H](Cc2ccccc2)NC(=O)[C@H](Cc2ccccc2)NC(=O)[C@H](Cc2c[nH]cn2)NC(=O)CNC(=O)[C@H]([C@@H](C)O)NC(=O)[C@@H](NC(=O)[C@H](Cc2ccccc2)NC(=O)[C@H](CCCNC(=N)N)NC(=O)[C@@H](N)CCC(N)=O)C(C)(C)SSC[C@@H](C(=O)N[C@@H](CC(N)=O)C(=O)NCC(=O)N2CCC[C@H]2C(N)=O)NC(=O)[C@@H]2CCCN2C(=O)[C@H](Cc2ccc(O)cc2)NC1=O
B6: Peptide No. 50 (peptide)
peptide: QRF[Pen]TGHF[dH]GLYPCNGP-NH2
modifications: disulfide 4-14; N-terminus assumed
SMILES: CC(C)C[C@@H]1NC(=O)CNC(=O)[C@@H](Cc2c[nH]cn2)NC(=O)[C@H](Cc2ccccc2)NC(=O)[C@H](Cc2c[nH]cn2)NC(=O)CNC(=O)[C@H]([C@@H](C)O)NC(=O)[C@@H](NC(=O)[C@H](Cc2ccccc2)NC(=O)[C@H](CCCNC(=N)N)NC(=O)[C@@H](N)CCC(N)=O)C(C)(C)SSC[C@@H](C(=O)N[C@@H](CC(N)=O)C(=O)NCC(=O)N2CCC[C@H]2C(N)=O)NC(=O)[C@@H]2CCCN2C(=O)[C@H](Cc2ccc(O)cc2)NC1=O
B7: Peptide No. 155 (peptide)
peptide: QRF[Pen]TGHF[dF]GPYPCNGP-NH2
modifications: disulfide 4-14; N-terminus assumed
SMILES: C[C@@H](O)[C@@H]1NC(=O)[C@@H](NC(=O)[C@H](Cc2ccccc2)NC(=O)[C@H](CCCNC(=N)N)NC(=O)[C@@H](N)CCC(N)=O)C(C)(C)SSC[C@@H](C(=O)N[C@@H](CC(N)=O)C(=O)NCC(=O)N2CCC[C@H]2C(N)=O)NC(=O)[C@@H]2CCCN2C(=O)[C@H](Cc2ccc(O)cc2)NC(=O)[C@@H]2CCCN2C(=O)CNC(=O)[C@@H](Cc2ccccc2)NC(=O)[C@H](Cc2ccccc2)NC(=O)[C@H](Cc2c[nH]cn2)NC(=O)CNC1=O
B8: Peptide No. 49 (peptide)
peptide: QRF[Pen]TGHF[dR]GLYPCNGP-NH2
modifications: disulfide 4-14; N-terminus assumed
SMILES: CC(C)C[C@@H]1NC(=O)CNC(=O)[C@@H](CCCNC(=N)N)NC(=O)[C@H](Cc2ccccc2)NC(=O)[C@H](Cc2c[nH]cn2)NC(=O)CNC(=O)[C@H]([C@@H](C)O)NC(=O)[C@@H](NC(=O)[C@H](Cc2ccccc2)NC(=O)[C@H](CCCNC(=N)N)NC(=O)[C@@H](N)CCC(N)=O)C(C)(C)SSC[C@@H](C(=O)N[C@@H](CC(N)=O)C(=O)NCC(=O)N2CCC[C@H]2C(N)=O)NC(=O)[C@@H]2CCCN2C(=O)[C@H](Cc2ccc(O)cc2)NC1=O
B9: Peptide No. 95 (peptide)
peptide: QRF[Pen]TGHWGGLYPCNGP-NH2
modifications: disulfide 4-14; N-terminus assumed
SMILES: CC(C)C[C@@H]1NC(=O)CNC(=O)CNC(=O)[C@H](Cc2c[nH]c3ccccc23)NC(=O)[C@H](Cc2c[nH]cn2)NC(=O)CNC(=O)[C@H]([C@@H](C)O)NC(=O)[C@@H](NC(=O)[C@H](Cc2ccccc2)NC(=O)[C@H](CCCNC(=N)N)NC(=O)[C@@H](N)CCC(N)=O)C(C)(C)SSC[C@@H](C(=O)N[C@@H](CC(N)=O)C(=O)NCC(=O)N2CCC[C@H]2C(N)=O)NC(=O)[C@@H]2CCCN2C(=O)[C@H](Cc2ccc(O)cc2)NC1=O
B10: Peptide No. 45 (peptide)
peptide: QRF[Pen]TGHFG[dY]LYPCNGP-NH2
modifications: disulfide 4-14; N-terminus assumed
SMILES: CC(C)C[C@@H]1NC(=O)[C@@H](Cc2ccc(O)cc2)NC(=O)CNC(=O)[C@H](Cc2ccccc2)NC(=O)[C@H](Cc2c[nH]cn2)NC(=O)CNC(=O)[C@H]([C@@H](C)O)NC(=O)[C@@H](NC(=O)[C@H](Cc2ccccc2)NC(=O)[C@H](CCCNC(=N)N)NC(=O)[C@@H](N)CCC(N)=O)C(C)(C)SSC[C@@H](C(=O)N[C@@H](CC(N)=O)C(=O)NCC(=O)N2CCC[C@H]2C(N)=O)NC(=O)[C@@H]2CCCN2C(=O)[C@H](Cc2ccc(O)cc2)NC1=O
B11: Peptide No. 148 (peptide)
peptide: QRF[Pen]TGHF[dA][dA]LYPCNGP-NH2
modifications: disulfide 4-14; N-terminus assumed
SMILES: CC(C)C[C@@H]1NC(=O)[C@@H](C)NC(=O)[C@@H](C)NC(=O)[C@H](Cc2ccccc2)NC(=O)[C@H](Cc2c[nH]cn2)NC(=O)CNC(=O)[C@H]([C@@H](C)O)NC(=O)[C@@H](NC(=O)[C@H](Cc2ccccc2)NC(=O)[C@H](CCCNC(=N)N)NC(=O)[C@@H](N)CCC(N)=O)C(C)(C)SSC[C@@H](C(=O)N[C@@H](CC(N)=O)C(=O)NCC(=O)N2CCC[C@H]2C(N)=O)NC(=O)[C@@H]2CCCN2C(=O)[C@H](Cc2ccc(O)cc2)NC1=O
B12: Peptide No. 203 (peptide)
peptide: QRF[Pen]TGHF[dF]PLYPCNGP-NH2
modifications: disulfide 4-14; N-terminus assumed
SMILES: CC(C)C[C@@H]1NC(=O)[C@@H]2CCCN2C(=O)[C@@H](Cc2ccccc2)NC(=O)[C@H](Cc2ccccc2)NC(=O)[C@H](Cc2c[nH]cn2)NC(=O)CNC(=O)[C@H]([C@@H](C)O)NC(=O)[C@@H](NC(=O)[C@H](Cc2ccccc2)NC(=O)[C@H](CCCNC(=N)N)NC(=O)[C@@H](N)CCC(N)=O)C(C)(C)SSC[C@@H](C(=O)N[C@@H](CC(N)=O)C(=O)NCC(=O)N2CCC[C@H]2C(N)=O)NC(=O)[C@@H]2CCCN2C(=O)[C@H](Cc2ccc(O)cc2)NC1=O
B13: Peptide No. 269 (peptide)
peptide: RFCTGXFGGLYPC
modifications: Pen 3; Thz(Me) 6 (N-methyl-thiazolium); Sar 9; NMeL 10; disulfide 3-13; C-terminal CONH2
B14: Peptide No. 271 (peptide)
peptide: RFCTGXFGGLYPC
modifications: Pen 3; triazolylAla 6 (1,2,3-triazole side chain); Sar 9; NMeL 10; disulfide 3-13; C-terminal amide

Bridge positions count the residues as written; N and C are the ends. Square brackets hold non-standard residues; d marks the D form. Ends that are not written are not given here. NMeL = CN[C@@H](CC(C)C)C(=O)O; Pen = CC(C)(S)[C@H](N)C(=O)O

The target in the first test is T1, soluble human FcRn (shFcRn) (human, UniProt P55899 24-297; P61769 21-119).
T1 construct: Biotinylated for the ELISA, amine-coupled to a CM5 chip for SPR; also called biotinylated shFcRn
T1 sequence (P55899 24-297 limits assumed, chain 1 of 2): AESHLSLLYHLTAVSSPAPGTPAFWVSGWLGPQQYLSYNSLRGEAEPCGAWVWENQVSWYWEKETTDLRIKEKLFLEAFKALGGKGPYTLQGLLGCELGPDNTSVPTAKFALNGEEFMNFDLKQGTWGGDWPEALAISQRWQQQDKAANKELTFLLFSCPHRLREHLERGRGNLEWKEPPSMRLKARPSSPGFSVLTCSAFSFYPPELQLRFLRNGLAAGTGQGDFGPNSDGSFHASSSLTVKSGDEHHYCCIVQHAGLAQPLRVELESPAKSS
T1 sequence (P61769 21-119 limits assumed, chain 2 of 2): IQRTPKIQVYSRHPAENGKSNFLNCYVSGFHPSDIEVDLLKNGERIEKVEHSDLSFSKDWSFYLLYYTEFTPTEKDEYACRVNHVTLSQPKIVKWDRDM
The test can be described thus: IgG competition ELISA.
Description: (§1) The wells were coated with 100 μl/well of 1 μg/ml biotinylated-shFcRn in Buffer A. The plate was sealed and incubated at 37° C. for 2 hours. Afterwards, the plate was washed with 200 μl/well of Buffer B (Buffer B: 100 mM MES pH 6, 150 mM NaCl, 0.5% BSA IgG-free (Jackson ImmunoResearch, West Grove, Pa.), 0.05% Tween-20). […] To allow for mixing, the plate was rocked for 2 minutes, sealed and incubated at 37° C. for 2 hours. […] The plate was covered, incubated for 30 minutes at room temperature and washed 4 times with 200 μl/well of ice-cold buffer B. SureBlue TMB substrate solution (100 μl/well, KPL, Gaithersburg, Md.) was added and the plate was allowed to incubate at room temperature until color developed, which took 5 to 10 minutes. Once color developed, 100 μl/well of TMB stop solution (KPL, Gaithersburg, Md.) was added and the absorbance was measured at 450 nm. The data was plotted as absorbance vs. peptide concentration to derive the inhibitory concentration 50% (IC₅₀) values.
For B1, the half-inhibitory concentration (IC50) (usually the concentration needed to halve the response being measured) turned out to be 5 µM.
Same read-out and setting: the figure for B2 is 2.8 µM; for B3 it is 21 µM; for B4 it is 1.3 µM.
Still for that read-out and setting: for B5 the value was 5.9 µM.
On the same count and under the same terms, the figure for B6 is 3.6 µM; for B7 it is 39 µM.
The molecule B8 returned an IC50 of 4.1 µM.
The same measure, in the same setting: the figure for QRFCTGHFXGLYPCNGP (Pen 4; Aib 9; disulfide 4-14; C-terminal amide) [Peptide No. 54] is 17 µM.

The next test has as its target T1, soluble human FcRn (shFcRn). The experiment in a line: IgG competition ELISA. The source holds these as a separate data set. On the technique in general: In an ELISA, binding on a coated surface is turned into a signal by an enzyme label.
Description: as §1
Take B9: the IC50 was found to be 26 µM.

The target is the same in another test. The experiment in a line: SPR pH 6.
Description: The following steps were performed to cross-link soluble human or cynomolgus FcRn to the dextran surface of a CM5 sensor chip (Biacore AB, Uppsala, Sweden) by an amine coupling reaction involving 1-ethyl-(3-dimethylaminopropyl)-carbodiimide hydrochloride (EDC) (Biacore AB, Uppsala, Sweden) and N-hydroxysuccinimide (NHS) (Biacore AB, Uppsala, Sweden) as recommended by Biacore (BIAapplications Handbook, version AB, section 4.2, Biacore AB, Uppsala, Sweden). […] Residual sites on the FcRn flow cell were blocked with 1 M ethanolamine hydrochloride pH 8.5 (Biacore AB, Uppsala, Sweden). A control flow cell was blocked with ethanolamine for reference subtraction. For analysis of the monomeric peptides, FcRn was coated to a final density of 4000-5000 response units (RU). For analysis of the peptide dimers, FcRn was coated to a density of 2000-2500 RU. All SPR measurements were performed using a BIACORE 3000 Instrument (Biacore AB Uppsala, Sweden). For measurements done at either pH 6 or pH 7.4, experiments were performed in 50 mM phosphate, 100 mM sodium chloride, 0.01% surfactant P20 (Biacore AB, Uppsala, Sweden).
Ten, 2-fold dilutions of the peptide were injected over the FcRn-CM5 chip at a rate of 20 μl/min for 2 min. The peptide was dissociated from the chip for 2.5 minutes with buffer. Any remaining peptide was removed from the chip with a 30 second injection of HBS-P buffer (Biacore AB, Uppsala, Sweden) at a rate of 30 μl/min. Sensorgrams were generated and analyzed using BiaEval software version 3.1 (Biacore AB, Uppsala, Sweden). The equilibrium RU observed for each injection was plotted against concentration. The equilibrium KD values were derived by analysis of the plots using the steady state affinity model included in the BiaEval software.
As for B10, the equilibrium dissociation constant (Kd) (as a rule, the equilibrium constant for the complex coming apart) amounted to 1.5 µM.
The molecule B2 showed a Kd of 0.51 µM.
On the same count and under the same terms, the figure for B11 is 0.45 µM.
B4 had a dissociation constant (Kd) of 0.24 µM.
With B12, the dissociation constant (Kd) turned out to be 3.8 µM.
Same read-out and setting: the figure for B5 is 0.72 µM.
On the same count and under the same terms, for B7 the value was 18.3 µM; for QRFCTGHFXGLYPCNGP (Pen 4; Aib 9; disulfide 4-14; C-terminal amide) [Peptide No. 54], 5.2 µM.

The next test has the same target. The test can be described thus: IgG competition ELISA. The source holds these as a separate data set.
The molecule RFCTGXFGGLYPC (Pen 3; PropargylGly 6; Sar 9; NMeLeu 10; disulfide 3-13; C-terminal amide) [Peptide No. 261] gave an IC50 of 160 µM.
The same measure, in the same setting: the figure for B13 is 2.4 µM; for QRFCTGXFGGLYPCNGP (Pen 4; Thz 7; disulfide 4-14; C-terminal amide) [Peptide No. 91] it is 44 µM; for B14 it is 5.7 µM.
